Source: patent publication US20070020327A1
Read-outs that look alike come from different tables or passages of the source. Each block holds one binder with its values, some of them ahead of it.

How the values were obtained:
HLA-A*0206 (human) [1] = test: inhibition of 125I probe peptide binding to purified HLA, gel filtration; ratio = IC50 standard/IC50 test
HLA-A*6802 (human) [2] = test: as above
HLA-A*0201 (human) [3] = test: as above
HLA-A*0202 (human) [4] = test: as above
HLA-A*0206 (human) [5] = test: competition with 125I-labelled standard peptide for purified HLA, gel filtration; ratio = IC50 standard / IC50 test peptide; conditions: remark: other sources report otherwise
HLA-A*0203 (human) [6] = test: as above; conditions: remark: other sources report otherwise
HLA-A*0201 (human) [7] = test: as above; conditions: remark: other sources report otherwise
HLA-A*0202 (human) [8] = test: as above; conditions: remark: other sources report otherwise
[9] = molecular target: HLA-A*0202 (purified HLA class I molecule) (human); test: competition with 125I-labelled standard peptide for purified HLA, gel filtration
HLA-A*0206 (human) [10] = test: competition for purified HLA with 125I-labelled standard peptide 941.01 [..] as competitor, gel filtration; conditions: scale: ratio
HLA-A*0203 (human) [11] = test: as above; conditions: scale: ratio
HLA-A*0201 (human) [12] = test: as above; conditions: scale: ratio
HLA-A*0202 (human) [13] = test: as above; conditions: scale: ratio
HLA-A*1101 (human) [14] = test: competition with a 125I-labelled probe peptide for purified HLA-A*1101, gel filtration; value relative to the standard peptide
HLA-A*0203 (human) [15] = test: competition with 125I-labelled standard peptide 941.01 for purified HLA-A*0203, gel filtration
HLA-A*0206 (human) [16] = test: competition with 125I-labelled standard peptide 941.01 for purified HLA-A*0206, gel filtration
HLA-A*0202 (human) [17] = test: competition with 125I-labelled standard peptide 941.01 for purified HLA-A*0202, gel filtration
HLA-A*0201 (human) [18] = test: competition with 125I-labelled standard peptide 941.01 for purified HLA-A*0201, gel filtration
HLA-A*6802 (human) [19] = test: competition with 125I-labelled standard peptide 1072.34 for purified HLA-A*6802, gel filtration
[20] = molecular target: HLA-A*0206 (purified HLA class I molecule) (human); test: competition with 125I-labelled standard peptide for purified HLA, gel filtration
[21] = molecular target: HLA-A*0201 (purified HLA class I molecule) (human); test: as above
HLA-A*1101 (human) [22] = test: inhibition of 125I-labeled probe peptide binding to purified HLA-A*1101, gel filtration; relative to standard peptide 940.06
HLA-A*1101 (human) [23] = test: competition with 125I-labeled standard peptide for purified HLA-A*1101, gel filtration; relative binding
HLA-A*6802 (human) [24] = test: competitive inhibition of 125I-labelled standard peptide binding to purified HLA
HLA-A*0201 (human) [25] = test: as above
HLA-A*0206 (human) [26] = test: as above
HLA-A*0203 (human) [27] = test: as above
HLA-A*0202 (human) [28] = test: as above
HLA-A*0206 (human) [29] = test: competition with 125I-labeled probe peptide for purified HLA, gel filtration
HLA-A*6802 (human) [30] = test: as above
HLA-A*0203 (human) [31] = test: as above
HLA-A*0201 (human) [32] = test: as above
HLA-A*0202 (human) [33] = test: as above
HLA-A*0203 (human) [34] = test: competition binding to purified HLA, 125I-labelled standard peptide, gel filtration; ratio = IC50 standard / IC50 test peptide
HLA-A*0201 (human) [35] = test: as above
HLA-A*6802 (human) [36] = test: inhibition of 125I-standard peptide binding to purified HLA, gel filtration
HLA-A*0203 (human) [37] = test: as above
HLA-A*0201 (human) [38] = test: as above
[39] = remark: other sources report otherwise

binding affinity ratio (HLA-A*0206 (human) [1]): 0.0005
binding affinity ratio (HLA-A*6802 (human) [2]): -0.0001
binding affinity ratio (HLA-A*0201 (human) [3]): 0.0003
binding affinity ratio (HLA-A*0202 (human) [4]): 0.005
Binder: ALPEKPAVYT (modifications not checked) [… (Kallikrein, position 235)]

binding affinity ratio (HLA-A*0206 (human) [10]; [39]): 0.01
binding affinity ratio (HLA-A*0203 (human) [11]; [39]): 0.027
binding affinity ratio (HLA-A*0201 (human) [12]; [39]): 0.0009
binding affinity ratio (HLA-A*0202 (human) [13]; [39]): 0.0032
Binder: IALSVGCTGAV (modifications not checked) [… (Kallikrein position 8, 11-mer)]

binding affinity ratio (IC50 of standard peptide / IC50 of test peptide) (HLA-A*0203 (human) [15]): 0.0003
binding affinity ratio (IC50 of standard peptide / IC50 of test peptide) (HLA-A*0206 (human) [16]): -0.0001
binding affinity ratio (IC50 of standard peptide / IC50 of test peptide) (HLA-A*0202 (human) [17]): -0.0001
binding affinity ratio (IC50 of standard peptide / IC50 of test peptide) (HLA-A*0201 (human) [18]): -0.0001
binding affinity ratio (IC50 of standard peptide / IC50 of test peptide) (HLA-A*6802 (human) [19]): -0.0001
Binder: RAVCGGVL (modifications not checked) [RAVCGGVL (PSA, position 43)]

IC50 (HLA-A*6802 (human) [24]; [39]): 5000 nM
IC50 (HLA-A*0201 (human) [25]; [39]): 200 nM
Binder: LMLLRLSEPA (modifications not checked) [Peptide 63.0014, … (PSA.117)]

binding affinity ratio (HLA-A*0206 (human) [1]; [39]): 0.0001
binding affinity ratio (HLA-A*0201 (human) [3]; [39]): 0.0003
binding affinity ratio (HLA-A*0202 (human) [4]; [39]): 0.0006
Binder: AAHCLKKNSQV (modifications not checked) [… (Kallikrein, position 63)]

IC50 (HLA-A*0206 (human) [26]): 5.6 nM
IC50 (HLA-A*6802 (human) [24]): 3.5 nM
IC50 (HLA-A*0203 (human) [27]): 12 nM
IC50 (HLA-A*0201 (human) [25]): 10 nM
IC50 (HLA-A*0202 (human) [28]): 2.9 nM
Binder: LVCNGVLQGV (modifications not checked) [Peptide 1418.55, … (PSA.213.V10)]

IC50 (HLA-A*0206 (human) [29]): 82 nM
IC50 (HLA-A*6802 (human) [30]): 258 nM
IC50 (HLA-A*0203 (human) [31]): 44 nM
IC50 (HLA-A*0201 (human) [32]): 238 nM
IC50 (HLA-A*0202 (human) [33]): 27 nM
Binder: ATFDIESKV (modifications not checked) [Peptide 1418.30 … (PSM.711.T2)]

binding affinity ratio (IC50 of standard peptide / IC50 of test peptide) (HLA-A*0203 (human) [15]): 0.0009
binding affinity ratio (IC50 of standard peptide / IC50 of test peptide) (HLA-A*0206 (human) [16]): -0.0001
binding affinity ratio (IC50 of standard peptide / IC50 of test peptide) (HLA-A*0202 (human) [17]): -0.0002
binding affinity ratio (IC50 of standard peptide / IC50 of test peptide) (HLA-A*0201 (human) [18]): -0.0001
binding affinity ratio (IC50 of standard peptide / IC50 of test peptide) (HLA-A*6802 (human) [19]): -0.0002
Binder: RLSEPAKIT (modifications not checked) [… (Kallikrein, position 125)]

IC50 (HLA-A*0206 (human) [26]; [39]): 712 nM
IC50 (HLA-A*6802 (human) [24]; [39]): 229 nM
IC50 (HLA-A*0203 (human) [27]; [39]): 40 nM
IC50 (HLA-A*0202 (human) [28]; [39]): 4.9 nM
Binder: TLSVTWIGV (modifications not checked) [Peptide 60.0217, … (PSA.5.V9)]

binding affinity ratio (HLA-A*0206 (human) [10]): 0.0009
binding affinity ratio (HLA-A*0203 (human) [11]): 0.0005
binding affinity ratio (HLA-A*0201 (human) [12]): 0.002
Binder: HLLSNDMCA (modifications not checked) [… (Kallikrein position 177, 9-mer)]

binding affinity ratio (IC50 of standard peptide / IC50 of test peptide) (HLA-A*0203 (human) [15]): 0.0003
binding affinity ratio (IC50 of standard peptide / IC50 of test peptide) (HLA-A*0206 (human) [16]): 0.0001
binding affinity ratio (IC50 of standard peptide / IC50 of test peptide) (HLA-A*0202 (human) [17]): -0.0001
binding affinity ratio (IC50 of standard peptide / IC50 of test peptide) (HLA-A*0201 (human) [18]): -0.0001
binding affinity ratio (IC50 of standard peptide / IC50 of test peptide) (HLA-A*6802 (human) [19]): -0.0001
Binder: RAYSEKVT (modifications not checked) [RAYSEKVT (Kallikrein, position 186)]

binding affinity ratio (HLA-A*0203 (human) [34]): 0.0005
binding affinity ratio (HLA-A*0201 (human) [35]): 0.0001
Binder: DTCGGDSGGPL (modifications not checked) [… (Kallikrein, position 207, 11 amino acids)]

The remaining lines, values behind:

Binder: PTQEPALGTT (modifications not checked) [Kallikrein (hK2) peptide …, position 142, 10 amino acids]
binding affinity ratio (ratio to standard peptide) (HLA-A*0206 (human) [5]): 0.0037
binding affinity ratio (ratio to standard peptide) (HLA-A*0203 (human) [6]): 0.052
binding affinity ratio (ratio to standard peptide) (HLA-A*0201 (human) [7]): 0.0084
binding affinity ratio (ratio to standard peptide) (HLA-A*0202 (human) [8]): 0.022

Binder: LVLAGGFFL (modifications not checked) [PSM peptide … (position 26, 9 amino acids)]
binding affinity ratio (IC50 of standard peptide / IC50 of test peptide) [9, 39]: 0.003

Binder: ESYKHEQVY (modifications not checked) [PAP peptide … (position 95, 9 amino acids)]
binding affinity ratio (IC50 of standard peptide / IC50 of test peptide) (HLA-A*1101 (human) [14]; [39]): 0.0002

Binder: NLFEPEDT (modifications not checked) [Kallikrein (hK2) peptide NLFEPEDT (position 79, 8 amino acids)]
binding affinity ratio (IC50 of standard peptide / IC50 of test peptide) [20]: -0.0001
binding affinity ratio (IC50 of standard peptide / IC50 of test peptide) [21]: 0.0002

Binder: CSPSCPLER (modifications not checked) [PAP peptide … (position 347, 9 amino acids)]
binding affinity ratio (IC50 of standard peptide / IC50 of test peptide) (HLA-A*1101 (human) [22]): 0.0006

Binder: LAGAKGVILY (modifications not checked) [PSM 219 …]
binding affinity ratio (IC50 of standard peptide / IC50 of test peptide) (HLA-A*1101 (human) [23]): 0.0002

Binder: ETYELVEKFY (modifications not checked) [PSM peptide … (position 557, 10 amino acids)]
binding affinity ratio (IC50 of standard peptide / IC50 of test peptide) (HLA-A*1101 (human) [14]): 0.0002

Binder: ALPEKPAV (modifications not checked) [ALPEKPAV (Kallikrein, position 235)]
binding affinity ratio (HLA-A*0206 (human) [1]; [39]): 0.0001
binding affinity ratio (HLA-A*6802 (human) [2]; [39]): -0.0001
binding affinity ratio (HLA-A*0201 (human) [3]; [39]): 0.0009
binding affinity ratio (HLA-A*0202 (human) [4]; [39]): 0.02

Binder: MLCAGLWT (modifications not checked) [Kallikrein (hK2) peptide MLCAGLWT (position 196, 8 amino acids)]
binding affinity ratio (IC50 of standard peptide / IC50 of test peptide) [9]: 0.002
binding affinity ratio (IC50 of standard peptide / IC50 of test peptide) [20]: 0.0001

Binder: KGEYFVEMY (modifications not checked) [PAP 322 …]
binding affinity ratio (IC50 of standard peptide / IC50 of test peptide) (HLA-A*1101 (human) [23]; [39]): 0.0002

Binder: IALSVGCT (modifications not checked) [IALSVGCT (Kallikrein position 8, 8-mer)]
binding affinity ratio (HLA-A*0206 (human) [10]): -0.0001
binding affinity ratio (HLA-A*0203 (human) [11]): -0.0001
binding affinity ratio (HLA-A*0201 (human) [12]): 0.0001
binding affinity ratio (HLA-A*0202 (human) [13]): -0.0002

Binder: PTQEPALGTT (modifications not checked) [PSA peptide …, position 138, 10 amino acids]
binding affinity ratio (ratio to standard peptide) (HLA-A*0206 (human) [5]): 0.0037
binding affinity ratio (ratio to standard peptide) (HLA-A*0203 (human) [6]): 0.052
binding affinity ratio (ratio to standard peptide) (HLA-A*0201 (human) [7]): 0.0084
binding affinity ratio (ratio to standard peptide) (HLA-A*0202 (human) [8]): 0.022

Binder: DALFDIESK (modifications not checked) [PSM peptide … (position 710, 9 amino acids)]
binding affinity ratio (IC50 of standard peptide / IC50 of test peptide) (HLA-A*1101 (human) [22]): 0.0002

Binder: LLSNDMCA (modifications not checked) [Kallikrein 178 LLSNDMCA]
binding affinity ratio (IC50 standard peptide / IC50 test peptide) (ratio to standard peptide) (HLA-A*6802 (human) [36]): -0.0001
binding affinity ratio (IC50 standard peptide / IC50 test peptide) (ratio to standard peptide) (HLA-A*0203 (human) [37]): 0.0003
binding affinity ratio (IC50 standard peptide / IC50 test peptide) (ratio to standard peptide) (HLA-A*0201 (human) [38]): 0.0003
